Measurements from article PMC12846830 (Proceedings of the National Academy of Sciences of the …, 2026).

Target: the molecule itself
Experiment: single-molecule photobleaching step analysis

B1: EmrE, a multidrug transporter from Escherichia coli, with a tetracysteine tag (TC-Tag) (natural protein)
chain: MNPYIYLGGAILAEVIGTTLMKFSEGFTRLWPSVGTIICYCASFWLLAQTLAYIPTGIAYAIWSGVGIVLISLLSWGFFGQRLDLPAIIGMMLICAGVLIINLLSRSTPH
modifications: FlAsH dye covalently bound to the tetracysteine tag
- stoichiometry N: 2
